As usually defined, the stoichiometry N is the number of molecules, sites or subunits per partner or assembly.

Results on eight molecules are retold here after PMC6167383, “Regulatory control of DNA end resection by Sae2 phosphorylation” (Nature Communications, 2018).

Changes are numbered by the printed parent chain. In names and notes the source's numbering stands.

Data set [1] addresses T1, pSae2 λ (dephosphorylated) (Saccharomyces cerevisiae, UniProt P46946 1-345).
T1 sequence: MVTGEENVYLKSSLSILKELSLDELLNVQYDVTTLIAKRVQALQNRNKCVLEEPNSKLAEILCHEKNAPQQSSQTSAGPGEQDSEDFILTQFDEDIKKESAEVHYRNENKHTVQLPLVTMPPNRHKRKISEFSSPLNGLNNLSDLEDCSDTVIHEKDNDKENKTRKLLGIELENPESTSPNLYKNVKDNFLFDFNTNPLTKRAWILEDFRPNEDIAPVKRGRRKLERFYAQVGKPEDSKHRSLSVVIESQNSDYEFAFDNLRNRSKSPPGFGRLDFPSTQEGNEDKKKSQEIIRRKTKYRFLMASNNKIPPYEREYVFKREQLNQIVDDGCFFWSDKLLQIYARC
The data set can be described thus: EMSA; lambda phosphatase-treated; 2 mM Mg2+; 25 mM Tris-acetate pH 7.5, 1 mM DTT, 2 mM Mg acetate, 0.1 mg/ml BSA, 1 nM DNA, 30 C; 1 mM ATP with MRX; 30 nM streptavidin where indicated; native PAGE in TBE. The following applies: protein: recombinant; tags: C-terminal His; N-terminal MBP cleaved with PreScission; label: 3' 32P-cordycepin; blunt before 3' labeling. For orientation: In EMSA bound probe runs differently from free probe, usually more slowly.

Data set [2] deals with the molecule itself. The data set can be described thus: SEC; Superose 6 10/300 GL, 50 mM Tris-HCl pH 7.5, 150 mM NaCl, 10% glycerol, 0.5 mM β-mercaptoethanol, 4 °C; ~75 μg of the Sae2 variant, mock-treated or treated with λ phosphatase for 90 min at 30 °C before loading; absorbance at 215 nm. In general terms: In gel filtration, larger molecules generally elute earlier.
Data set [3] concerns the target T2, S. cerevisiae Mre11-Rad50-Xrs2 complex (S. cerevisiae, UniProt P32829 1-692; P12753 1-1312; P33301 1-854).
T2 construct: Mre11, S. cerevisiae; Rad50, S. cerevisiae; Xrs2, S. cerevisiae; also called MRX; MRX complex; copies: + +
The data set can be described thus: pull-down; MBP-tagged Sae2 on amylose resin (mock-treated or λ phosphatase-treated on the resin), 5 μg recombinant MRX, 1 h at 4 °C; wash 50 mM Tris-HCl pH 7.5, 2 mM EDTA, 80 mM NaCl, 0.2% NP40; eluted with 20 mM maltose; silver staining. The following applies: both partners purified.

Data set [4] concerns the molecule itself. The data set can be described thus: atomic force microscopy (particle volume analysis); 50 nM pSae2 in 40 mM Hepes pH 7, 5 mM MgCl2, 25 mM NaCl, 0.1 mM TCEP deposited on mica, imaged in air, without DNA; molecular weight from a published standard curve.

T2 sequence (P32829 whole entry, chain 1 of 3): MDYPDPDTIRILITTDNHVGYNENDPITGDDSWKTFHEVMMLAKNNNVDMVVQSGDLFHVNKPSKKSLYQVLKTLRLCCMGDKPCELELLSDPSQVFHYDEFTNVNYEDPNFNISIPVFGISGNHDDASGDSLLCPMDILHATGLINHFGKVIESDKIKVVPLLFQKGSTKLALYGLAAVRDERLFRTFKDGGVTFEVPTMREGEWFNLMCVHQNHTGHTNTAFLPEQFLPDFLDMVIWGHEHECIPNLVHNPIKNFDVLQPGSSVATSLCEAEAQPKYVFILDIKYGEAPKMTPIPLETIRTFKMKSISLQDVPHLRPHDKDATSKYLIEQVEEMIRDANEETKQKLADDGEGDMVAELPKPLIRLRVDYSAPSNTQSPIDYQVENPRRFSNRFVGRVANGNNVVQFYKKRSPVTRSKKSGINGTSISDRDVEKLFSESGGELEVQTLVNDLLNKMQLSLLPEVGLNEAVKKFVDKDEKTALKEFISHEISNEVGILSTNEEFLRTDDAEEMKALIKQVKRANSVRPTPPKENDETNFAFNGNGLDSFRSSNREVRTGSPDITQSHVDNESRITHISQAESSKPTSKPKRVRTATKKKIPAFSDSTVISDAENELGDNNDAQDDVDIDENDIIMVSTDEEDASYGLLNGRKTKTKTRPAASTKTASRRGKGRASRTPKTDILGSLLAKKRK
T2 sequence (P12753 whole entry, chain 2 of 3): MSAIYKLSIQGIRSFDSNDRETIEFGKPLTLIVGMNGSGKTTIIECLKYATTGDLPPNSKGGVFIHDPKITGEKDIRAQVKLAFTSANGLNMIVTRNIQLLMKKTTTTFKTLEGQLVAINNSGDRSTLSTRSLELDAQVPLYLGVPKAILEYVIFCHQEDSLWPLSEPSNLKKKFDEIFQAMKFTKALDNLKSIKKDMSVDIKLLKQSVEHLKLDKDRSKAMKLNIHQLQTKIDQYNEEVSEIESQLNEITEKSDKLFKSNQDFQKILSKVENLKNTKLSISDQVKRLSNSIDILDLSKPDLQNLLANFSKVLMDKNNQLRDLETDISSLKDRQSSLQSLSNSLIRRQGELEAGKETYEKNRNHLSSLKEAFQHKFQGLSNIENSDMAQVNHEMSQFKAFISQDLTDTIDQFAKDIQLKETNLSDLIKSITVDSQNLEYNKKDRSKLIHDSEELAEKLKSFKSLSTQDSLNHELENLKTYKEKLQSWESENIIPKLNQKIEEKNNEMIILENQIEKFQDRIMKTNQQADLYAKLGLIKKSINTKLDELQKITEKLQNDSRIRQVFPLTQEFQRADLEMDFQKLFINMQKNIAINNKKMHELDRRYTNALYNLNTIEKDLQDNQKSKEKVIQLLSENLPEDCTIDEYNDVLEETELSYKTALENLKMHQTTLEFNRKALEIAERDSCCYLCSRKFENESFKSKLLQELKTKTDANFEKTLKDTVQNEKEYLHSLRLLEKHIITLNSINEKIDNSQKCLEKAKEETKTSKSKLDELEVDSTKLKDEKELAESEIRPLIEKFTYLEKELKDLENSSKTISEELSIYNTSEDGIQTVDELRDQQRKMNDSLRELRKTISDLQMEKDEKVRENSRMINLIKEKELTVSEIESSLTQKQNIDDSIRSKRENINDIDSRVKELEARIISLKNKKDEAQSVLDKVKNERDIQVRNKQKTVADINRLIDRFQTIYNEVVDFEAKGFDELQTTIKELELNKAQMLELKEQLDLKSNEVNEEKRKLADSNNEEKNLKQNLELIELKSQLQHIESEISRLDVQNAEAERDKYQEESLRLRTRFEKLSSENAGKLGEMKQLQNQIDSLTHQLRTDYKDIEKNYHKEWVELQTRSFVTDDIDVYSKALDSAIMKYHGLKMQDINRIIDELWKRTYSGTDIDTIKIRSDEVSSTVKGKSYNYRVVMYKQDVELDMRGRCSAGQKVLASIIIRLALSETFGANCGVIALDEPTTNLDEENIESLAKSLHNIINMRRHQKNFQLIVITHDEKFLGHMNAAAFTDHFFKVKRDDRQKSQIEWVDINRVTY
T2 sequence (P33301 whole entry, chain 3 of 3): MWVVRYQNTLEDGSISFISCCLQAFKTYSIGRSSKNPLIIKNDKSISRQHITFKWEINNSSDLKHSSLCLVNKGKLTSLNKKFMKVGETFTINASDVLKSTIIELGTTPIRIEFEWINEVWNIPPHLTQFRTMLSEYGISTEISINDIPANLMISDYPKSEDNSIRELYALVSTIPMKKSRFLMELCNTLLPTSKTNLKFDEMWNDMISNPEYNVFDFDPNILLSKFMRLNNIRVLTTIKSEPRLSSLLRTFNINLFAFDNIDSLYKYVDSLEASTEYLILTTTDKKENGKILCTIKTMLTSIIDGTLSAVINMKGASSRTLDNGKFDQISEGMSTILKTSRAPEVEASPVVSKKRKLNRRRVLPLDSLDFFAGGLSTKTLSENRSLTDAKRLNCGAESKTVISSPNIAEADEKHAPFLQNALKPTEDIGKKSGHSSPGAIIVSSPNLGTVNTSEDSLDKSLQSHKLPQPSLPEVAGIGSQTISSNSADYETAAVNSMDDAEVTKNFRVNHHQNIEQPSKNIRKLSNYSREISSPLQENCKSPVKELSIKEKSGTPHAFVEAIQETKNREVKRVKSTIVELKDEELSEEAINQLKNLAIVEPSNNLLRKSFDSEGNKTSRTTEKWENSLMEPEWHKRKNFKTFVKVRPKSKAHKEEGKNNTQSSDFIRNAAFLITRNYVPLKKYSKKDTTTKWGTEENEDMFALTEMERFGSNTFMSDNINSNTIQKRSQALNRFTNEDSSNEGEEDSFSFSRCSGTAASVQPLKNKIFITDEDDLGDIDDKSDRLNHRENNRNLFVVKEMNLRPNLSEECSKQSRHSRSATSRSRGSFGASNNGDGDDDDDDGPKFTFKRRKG

B1: 100 bp dsDNA (Bio100/Bio100c) (dsDNA)
DNA 1: GTAAGTGCCGCGGTGCGGGTGCCAGGGCGTGCCCTTGGGCTCCCCGGGCGCGTACTCCACCTCATAATCTTCTGCCATGGTCGTAGCAGCCTCCTGCATC
DNA 2: GATGCAGGAGGCTGCTACGACCATGGCAGAAGATTATGAGGTGGAGTACGCGCCCGGGGAGCCCAAGGGCACGCCCTGGCACCCGCACCGCGGCACTTAC
modifications: internal biotin-T in Bio100 (bold T; exact position not visible in the text)
Turning to B1, the binding result in data set [1] is on record as “binds”.

B2: pSae2 ΔC95, lacking 95 C-terminal residues (domain or fragment, S. cerevisiae, UniProt P46946 1-250, looked up)
chain: MVTGEENVYLKSSLSILKELSLDELLNVQYDVTTLIAKRVQALQNRNKCVLEEPNSKLAEILCHEKNAPQQSSQTSAGPGEQDSEDFILTQFDEDIKKESAEVHYRNENKHTVQLPLVTMPPNRHKRKISEFSSPLNGLNNLSDLEDCSDTVIHEKDNDKENKTRKLLGIELENPESTSPNLYKNVKDNFLFDFNTNPLTKRAWILEDFRPNEDIAPVKRGRRKLERFYAQVGKPEDSKHRSLSVVIESQ
modifications: phosphorylated (named pSae2; sites not listed)
notes: Sae2, S. cerevisiae, lacking the 95 C-terminal residues; source: Sf9, purified as pSae2; not shown: MBP, N-terminal, cleaved
Consider B2, for which the binding result in data set [2] is “binds”.

B3: pSae2 S267A, expressed in the presence of phosphatase inhibitors (natural protein, S. cerevisiae, UniProt P46946 1-345, looked up)
chain: T1 sequence with S267A
modifications: phosphorylated (prepared with phosphatase inhibitors; sites not listed)
notes: Sae2, S. cerevisiae, point mutant made in the pFB-MBP-Sae2-his plasmid; not shown: MBP, N-terminal, cleaved
B3: in data set [2], the binding result is given as “binds”.

B4: pSae2 S267E phosphomimicking variant, expressed in the presence of phosphatase inhibitors (natural protein, S. cerevisiae, UniProt P46946 1-345, looked up)
chain: T1 sequence with S267E
modifications: phosphorylated (prepared with phosphatase inhibitors; sites not listed)
notes: Sae2, S. cerevisiae, full-length polypeptide with S267E; not shown: MBP, N-terminal, cleaved
On to B4, for which the binding result in data set [2] is reported as “binds”.

B5: full-length phosphorylated recombinant MBP-tagged pSae2 (mock-treated), on amylose resin (natural protein, S. cerevisiae, UniProt P46946 1-345, looked up)
chain: T1 sequence
modifications: phosphorylated (phosphatase inhibitors; mock-treated); sites not listed
notes: Sae2, S. cerevisiae, full-length polypeptide; The MBP tag was cleaved off only after elution of the complexes; also called MBP-tagged Sae2; MBP-Sae2-His; not shown: MBP, N-terminal, kept
Regarding B5, the binding result in data set [3] is “binds”.

B6: hyperphosphorylated recombinant Sae2 (pSae2), expressed and purified with phosphatase inhibitors (natural protein, S. cerevisiae, UniProt P46946 1-345, looked up)
chain: T1 sequence
modifications: hyperphosphorylated (phosphatase inhibitors in culture and lysis buffer); estimate of 17 phosphorylation sites; sites not listed in the text
notes: Sae2, S. cerevisiae, full-length polypeptide (ends at residue 345 by the legend's 170-345); Tetramer by AFM volume analysis; also called phosphorylated Sae2; wt pSae2; not shown: MBP, N-terminal, cleaved
Turning to B6, the “stoichiometry N” value in data set [4] came to 4.

B7: pSae2 S267E dephosphorylated with λ phosphatase (natural protein, S. cerevisiae, UniProt P46946 1-345, looked up)
chain: T1 sequence with S267E
modifications: dephosphorylated with λ phosphatase
notes: Sae2, S. cerevisiae, full-length polypeptide with S267E; also called pSae2 S267E λ; not shown: MBP, N-terminal, cleaved
Regarding B7, in data set [2], the binding result is reported as “binds”.

B8: full-length recombinant MBP-tagged Sae2 dephosphorylated with λ phosphatase on amylose resin (natural protein, S. cerevisiae, UniProt P46946 1-345, looked up)
chain: T1 sequence
modifications: dephosphorylated with λ phosphatase on the resin
notes: Sae2, S. cerevisiae, full-length polypeptide; also called non-phosphorylated MBP-tagged Sae2; not shown: MBP, N-terminal, kept
For the molecule B8, the binding result in data set [3] is on record as “binds”.
